Experimental data reported in patent publication US20260069707A1, “COMBINATION THERAPY WITH ANTIBODY-DRUG CONJUGATES AND HYALURONIDASES” (HALOZYME, INC., priority 2024, published 2026).
Several values for one entry are separate records, joined by “and”; a condition that tells them apart may be missing. Equal entries are not always repeated.

Experiment: Enhertu analytes (TAB, TADC, free payload) in skin tissue homogenates of injection site
Type: in vivo, Yucatan miniature pig (Sus scrofa domestica)
Details: for Free Payload Result / TADC/TAB Ratio / Total Antibody Result: skin injection site homogenate, individual sites
Protocol: Porcine serum was used as surrogate matrix to prepare calibration standards and quality controls for skin sample quantitation. Untreated blank porcine skin was provided for preparation of monitoring quality controls. The porcine skin was homogenized at an approximate ratio of 0.5 mL of buffer for every 100 mg of skin. […] The monitoring controls were analyzed during the method performance evaluation. The following were selected for monitoring in the assay (Table 83).
Porcine serum was used as surrogate matrix to prepare calibration standards and quality controls for the quantitation of skin samples. […] The porcine skin was homogenized at an approximate ratio of 0.5 mL of buffer for every 100 mg of skin. […] These were analyzed during the method performance evaluation.
This sample was divided vertically into two identical pieces. One skin sample was placed into a pre-weighed cryogenic tube and its weight was recorded then stored on dry ice prior to transfer to ≤−70° C. The other skin sample was processed for potential future histological assessment into OCT freezing media and frozen on dry ice.
Animals received two SC doses on their lower abdominal region.
Two cohorts were included in the follow-on study. […] Each animal had two full thickness skin biopsies taken post-mortem using a 12 mm punch. This sample was divided vertically into two identical pieces. One skin sample was placed into a pre-weighed cryogenic tube and its weight was recorded, then stored on dry ice prior to transfer to ≤−70° C. The other skin sample was processed into OCT molds for potential future histological assessment.
Tissue lysates were prepared based upon the weight of the sample at a ratio of 0.2 g/mL homogenization buffer (Tables 81 and 82). The total protein concentration of each homogenate was determined by BCA assay. The concentration of the total ADC (TADC), total antibody (TAB) and free payload (deruxtecan) in each sample was then normalized to the protein concentration and reported in μg analyte per mg total protein.
In this study, six animals were used. […] Two cohorts were included in this study. Cohort 1 was euthanized 24 hours after treatment, while Cohort 2 was euthanized 48 hours after exposure to the two test solutions.

[1] = 24 hours after SC administration
[2] = 48 hours after SC administration
[3] = SC, day 1, individual animal, listed as ADC
[4] = SC, day 2, individual animal, listed as ADC
[5] = SC, day 7, individual animal, listed as ADC
[6] = SC, individual series, listed as ADC

Sacituzumab govitecan [Trodelvy]
Mean ADC in minipig skin [1]: 24.21 | Mean antibody (Ab) in minipig skin [1]: 27.65 | Mean payload in minipig skin [1]: 0.02 | Mean ADC in minipig skin [2]: 6.92 | Mean antibody (Ab) in minipig skin [2]: 7.97 | Mean payload in minipig skin [2]: 0.00 | Mean skin concentration, Free Payload (SC, 24 h post-injection): 0.02 μg/mg protein | Mean skin concentration, Total ADC (TADC) (SC, 24 h post-injection): 24.21 μg/mg protein | Mean skin concentration, Total Antibody (TAB) (SC, 24 h post-injection): 27.65 μg/mg protein | Mean skin concentration, Free Payload (SC, 48 h post-injection): 0.0042 μg/mg protein | Mean skin concentration, Total ADC (TADC) (SC, 48 h post-injection): 6.92 μg/mg protein | Mean skin concentration, Total Antibody (TAB) (SC, 48 h post-injection): 7.97 μg/mg protein | Mean skin concentration, Free Payload (SC, 168 h post-injection): 0.0004 μg/mg protein | Mean skin concentration, Total ADC (TADC) (SC, 168 h post-injection): 0.57 μg/mg protein | Mean skin concentration, Total Antibody (TAB) (SC, 168 h post-injection): 0.73 μg/mg protein | Concentration of free payload in the skin of minipigs [3]: 0.026 ug/mg protein and 0.020 ug/mg protein and 0.011 ug/mg protein | Total ADC concentration in the skin of minipigs [3]: 38.48 ug/mg protein and 22.00 ug/mg protein and 12.15 ug/mg protein | Total antibody concentration in the skin of minipigs [3]: 44.05 ug/mg protein and 22.63 ug/mg protein and 16.28 ug/mg protein | Concentration of free payload in the skin of minipigs (SC, day 1, mean): 0.02 ug/mg protein | Total ADC concentration in the skin of minipigs (SC, day 1, mean): 24.21 ug/mg protein | Total antibody concentration in the skin of minipigs (SC, day 1, mean): 27.65 ug/mg protein | Concentration of free payload in the skin of minipigs [4]: 0.003 ug/mg protein and 0.005 ug/mg protein (2×) | Total ADC concentration in the skin of minipigs [4]: 5.97 ug/mg protein and 6.98 ug/mg protein and 7.80 ug/mg protein | Total antibody concentration in the skin of minipigs [4]: 7.70 ug/mg protein and 8.07 ug/mg protein and 8.14 ug/mg protein | Concentration of free payload in the skin of minipigs (SC, day 2, mean): 0.00 ug/mg protein | Total ADC concentration in the skin of minipigs (SC, day 2, mean): 6.92 ug/mg protein | Total antibody concentration in the skin of minipigs (SC, day 2, mean): 7.97 ug/mg protein | Concentration of free payload in the skin of minipigs [5]: 0.001 ug/mg protein and 0.000 ug/mg protein (2×) | Total ADC concentration in the skin of minipigs [5]: 0.69 ug/mg protein and 0.48 ug/mg protein and 0.55 ug/mg protein | Total antibody concentration in the skin of minipigs [5]: 0.68 ug/mg protein and 0.72 ug/mg protein and 0.79 ug/mg protein | Concentration of free payload in the skin of minipigs (SC, day 7, mean): 0.00 ug/mg protein | Total ADC concentration in the skin of minipigs (SC, day 7, mean): 0.57 ug/mg protein | Total antibody concentration in the skin of minipigs (SC, day 7, mean): 0.73 ug/mg protein | AUC1-7, free payload in skin [6]: 0.024 ug*day/mL (2×) and 0.021 ug*day/mL | AUC1-7, total ADC in skin [6]: 38.87 µg·days/mL and 33.14 µg·days/mL and 30.85 µg·days/mL | AUC1-7, total antibody in skin [6]: 46.85 µg·days/mL and 37.33 µg·days/mL and 34.52 µg·days/mL | Cmax, free payload in skin [6]: 26 ng/mL and 20 ng/mL and 11 ng/mL | Cmax, total ADC in skin [6]: 38480 ng/mL and 22000 ng/mL and 12150 ng/mL | Cmax, total antibody in skin [6]: 44050 ng/mL and 22630 ng/mL and 16280 ng/mL | AUC1-7, free payload in skin (SC, mean): 0.02 µg·days/mL | AUC1-7, total ADC in skin (SC, mean): 34.29 µg·days/mL | AUC1-7, total antibody in skin (SC, mean): 39.57 µg·days/mL | Cmax, free payload in skin (SC, mean): 20 ng/mL | Cmax, total ADC in skin (SC, mean): 24210 ng/mL | Cmax, total antibody in skin (SC, mean): 27650 ng/mL | ADC/Ab ratio, mean AUC1-7 (minipig skin, SC): 87% | ADC/Ab ratio, mean Cmax (minipig skin, SC): 88% | ADC/Payload ratio, mean AUC1-7 (minipig skin, SC): 147791% | ADC/Payload ratio, mean Cmax (minipig skin, SC): 128404% | Free Payload Result (SC, 24 h, listed as ADC): 124000 pg/mL and 67800 pg/mL and 138000 pg/mL | TADC/TAB Ratio (SC, 24 h, listed as ADC): 0.97 and 0.75 and 0.87 | Total Antibody Result (SC, 24 h, listed as ADC): 143 µg/mL and 97.8 µg/mL and 237 µg/mL | Free Payload Result (SC, 48 h, listed as ADC): 21700 pg/mL and 29500 pg/mL and 33800 pg/mL | TADC/TAB Ratio (SC, 48 h, listed as ADC): 0.77 and 0.86 and 0.96 | Total Antibody Result (SC, 48 h, listed as ADC): 50.2 µg/mL and 51.7 µg/mL and 58.1 µg/mL
